From article doi:10.1101/2024.12.23.630133 (bioRxiv, 2024)

Molecular target: the molecule itself
Test: single-molecule GFP photobleaching

B1: HCN1SM (GFP-tagged human HCN1 channel) (natural protein)
chain: MEGGGKPNSSSNSRDDGNSVFPAKASATGAGPAAAEKRLGTPPGGGGAGAKEHGNSVCFKVDGGGGGGGGGGGGEEPAGGFEDAEGPRRQYGFMQRQFTSMLQPGVNKFSLRMFGSQKAVEKEQERVKTAGFWIIHPYSDFRFYWDLIMLIMMVGNLVIIPVGITFFTEQTTTPWIIFNVASDTVFLLDLIMNFRTGTVNEDSSEIILDPKVIKMNYLKSWFVVDFISSIPVDYIFLIVEKGMDSEVYKTARALRIVRFTKILSLLRLLRLSRLIRYIHQWEEIFHMTYDLASAVVRIFNLIGMMLLLCHWDGCLQFLVPLLQDFPPDCWVSLNEMVNDSWGKQYSYALFKAMSHMLCIGYGAQAPVSMSDLWITMLSMIVGATCYAMFVGHATALIQSLDSSRRQYQEKYKQVEQYMSFHKLPADMRQKIHDYYEHRYQGKIFDEENILNELNDPLREEIVNFNCRKLVATMPLFANADPNFVTAMLSKLRFEVFQPGDYIIREGAVGKKMYFIQHGVAGVITKSSKEMKLTDGSYFGEICLLTKGRRTASVRADTYCRLYSLSVDNFNEVLEEYPMMRRAFETVAIDRLDRIGKKNSILLQKFQKDLNTGVFNNQENEILKQIVKHDREMVQAIAPINYPQMTTLNSTSSTTTPTSRMRTQSPPVYTATSLSHSNLHSPSPSTQTPQPSAILSPCSYTTAVCSPPVQSPLAARTFHYASPTASQLSLMQQQPQQQVQQSQPPQTQPQQPSPQPQTPGSSTPKNEVHKSTQALHNTNLTREVRPLSASQPSLPHEVSTLISRPHPTVGESLASIPQPVTAVPGTGLQAGGRSTVPQRVTLFRQMSSGAIPPNRGVPPAPPPPAAALPRESSSVLNTDPDAEKPRFASNL
- stoichiometry N: 4
